According to PMC3899027:
Values joined by “and” are separate entries in the source; they are usually repeats but may differ in a detail not shown here. Equal entries are not always repeated. Each block holds one substance with its values, some of them ahead of it.

Assays:
[1] = target: ExsG (wild-type, full-length) (Rhizobium NT-26); experiment: AUC; sedimentation velocity; 50 mM Tris-HCl pH 8.0, 250 mM or 30 mM NaCl; seven concentrations 0.2-2 mg/ml; 40,000 rpm, 20°C; c(s) in SEDFIT
[2] = target: ExsG (wild-type, full-length) (Rhizobium NT-26); experiment: native MS; nESI-MS and IM-MS; 150 mM ammonium acetate pH 8, 0.1 mM DTT; 30-40 μM (monomer); native, phosphoramidate-treated or AMP-PNP-treated samples
[3] = target: ExsG (wild-type, full-length) (Rhizobium NT-26); experiment: native MS; nESI-MS at raised ionic strength: 400, 600 and 800 mM ammonium acetate pH 8, 0.1 mM DTT; 30-40 μM (monomer); disassembly of the hexamer
[4] = target: ExsG (wild-type, full-length) (Rhizobium NT-26); experiment: AUC; sedimentation equilibrium; 50 mM Tris-HCl pH 8.0, 250 mM NaCl; six concentrations 0.1-1.5 mg/ml; 7, 11, 16, 24 krpm, 20°C; SEDFIT and SEDPHAT
[5] = target: ExsG (wild-type, full-length) (Rhizobium NT-26); experiment: native MS; nESI-MS and IM-MS; 150 mM ammonium acetate pH 8, 0.1 mM DTT; 30-40 μM (monomer); native, phosphoramidate-treated or AMP-PNP-treated samples; remark: listed apart in the source
[6] = target: AgR (Rhizobium NT-26); experiment: SEC; Superose 6; 50 mM Tris-HCl pH 8.0, 30-500 mM NaCl, 1 mM βME; peak positions invariant irrespective of loading concentrations
[7] = target: ExsG receiver domain (ExsG-REC, residues 1-129) (Rhizobium NT-26); experiment: as above
[8] = target: ExsG phosphorylated on Asp62 by phosphoramidate (Rhizobium NT-26); experiment: native MS; nESI-MS and IM-MS; 150 mM ammonium acetate pH 8, 0.1 mM DTT; 30-40 μM (monomer); native, phosphoramidate-treated or AMP-PNP-treated samples
[9] = target: BphP1 kinase core (BphP1-HK, residues 462-703) (Rhizobium NT-26); experiment: SEC; Superose 6; 50 mM Tris-HCl pH 8.0, 30-500 mM NaCl, 1 mM βME; peak positions invariant irrespective of loading concentrations

Substance: ExsG (wild-type, full-length) (enzyme)
stoichiometry N [1]: 6 | stoichiometry N [2]: 2 | stoichiometry N [3]: 2 and 4 | stoichiometry N [4]: 6 | stoichiometry N [5]: 6

Substance: ExsG phosphorylated on Asp62 by phosphoramidate (enzyme)
stoichiometry N [8]: 6

Substance: BphP1 kinase core (BphP1-HK, residues 462-703) (domain or fragment)
stoichiometry N [9]: 2

Now from value to substance:

stoichiometry N [6]: 2
Substance: AgR (natural protein)

stoichiometry N [7]: 2
Substance: ExsG receiver domain (ExsG-REC, residues 1-129) (domain or fragment)
